The source of these data is patent publication US20230218710A1 (COHBAR, published 2023).

Square brackets hold non-standard residues; d marks the D form. Primed or numbered codes have the meaning given here. Ends that are not written are not given here. PEG12″ = polyethylene glycol with 12 units (PEG-12)

Assay [1] has as its target T1, Apelin Receptor (APJ) stably overexpressed in CHO-K1 AGTRL1 Gi cells (UniProt P35414 1-380, limits assumed).
T1 sequence (looked up): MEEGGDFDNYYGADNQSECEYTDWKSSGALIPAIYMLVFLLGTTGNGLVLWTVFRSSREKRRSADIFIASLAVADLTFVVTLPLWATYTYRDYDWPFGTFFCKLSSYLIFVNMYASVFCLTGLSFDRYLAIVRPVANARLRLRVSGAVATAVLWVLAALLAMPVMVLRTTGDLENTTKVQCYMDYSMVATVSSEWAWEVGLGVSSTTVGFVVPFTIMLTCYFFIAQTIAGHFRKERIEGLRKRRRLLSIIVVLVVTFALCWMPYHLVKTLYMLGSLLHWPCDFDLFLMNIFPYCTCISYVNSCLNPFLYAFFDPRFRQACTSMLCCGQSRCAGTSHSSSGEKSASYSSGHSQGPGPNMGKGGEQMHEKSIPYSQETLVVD
Description: cell-based or functional assay.

In assay [2] the target is ProLink tagged human APJ (Apelin Receptor) in CHO-K1 AGTRL1 β-Arrestin cells (human, UniProt P35414 1-380). Briefly: cell-based or functional assay.

B1: SEQ ID NO: 23 (peptide)
peptide: RRMVFQCLEG[dA]
Take B1: the “inhibition of forskolin-induced cAMP, Percent of Pyr-Apelin-13 Control Activity (10 µM peptide)” value in assay [1] was -4%. The “β-Arrestin recruitment, Percent of Apelin-13 Control Activity (10 µM peptide)” value (from here on “β-Arrestin recruitment, Percent”) in assay [2] was 0%.

B2: SEQ ID NO: 55 (peptide)
peptide: RRMMGM
For the molecule B2, the “inhibition of forskolin-induced cAMP, Percent of Pyr-Apelin-13 Control Activity (10 µM peptide)” value in assay [1] is -7%. The “β-Arrestin recruitment, Percent” value in assay [2] was 1%.

B3: SEQ ID NO: 33 (peptide)
peptide: RRLLGLVFQSLCG[dA]
On to B3, for which the “inhibition of forskolin-induced cAMP, Percent of Pyr-Apelin-13 Control Activity (10 µM peptide)” value in assay [1] came out at 27%. For the same molecule, the “β-Arrestin recruitment, Percent” value in assay [2] was 9%.

B4: SEQ ID NO: 54 (peptide)
peptide: RMMGMVFQSLCG[dA]
Turning to B4, the “inhibition of forskolin-induced cAMP, Percent of Pyr-Apelin-13 Control Activity (10 µM peptide)” value in assay [1] turned out to be 20%. The “β-Arrestin recruitment, Percent” value in assay [2] was 1%.

B5: SEQ ID NO: 28 (peptide)
peptide: RRMGYQCLEG[dA]
For B5, the “inhibition of forskolin-induced cAMP, Percent of Pyr-Apelin-13 Control Activity (10 µM peptide)” value in assay [1] stood at 3%. In assay [2], the “β-Arrestin recruitment, Percent” value is -1%.

B6: SEQ ID NO: 25 (peptide)
peptide: RREMVYQCLCG[dA]
modifications: cysteine pairing not given here
For B6, the “inhibition of forskolin-induced cAMP, Percent of Pyr-Apelin-13 Control Activity (10 µM peptide)” value in assay [1] was determined as 3%. The “β-Arrestin recruitment, Percent” value in assay [2] is -1%.

B7: SEQ ID NO: 34 (peptide)
peptide: RXMMGMVFQSLCGA
modifications: (Aib) = aminoisobutyric acid at position 2; C-terminal (dA) = D-alanine
On to B7, for which the “inhibition of forskolin-induced cAMP, Percent of Pyr-Apelin-13 Control Activity (10 µM peptide)” value in assay [1] was found to be 61%. Moreover, the “β-Arrestin recruitment, Percent” value in assay [2] amounted to 8%.

B8: SEQ ID NO: 56 (peptide)
peptide: RRMMGMV
Regarding B8, the “inhibition of forskolin-induced cAMP, Percent of Pyr-Apelin-13 Control Activity (10 µM peptide)” value in assay [1] is -2%. The “β-Arrestin recruitment, Percent” value in assay [2] turned out to be 0%.

B9: SEQ ID NO: 53 (peptide)
peptide: RMMGMVFQSL
On to B9, for which the “inhibition of forskolin-induced cAMP, Percent of Pyr-Apelin-13 Control Activity (10 µM peptide)” value in assay [1] turned out to be 6%. The “β-Arrestin recruitment, Percent” value in assay [2] came to 1%.

B10: SEQ ID NO: 59 (peptide)
peptide: RRMMGMVFQS
In the case of B10, the “inhibition of forskolin-induced cAMP, Percent of Pyr-Apelin-13 Control Activity (10 µM peptide)” value in assay [1] is -2%. Moreover, the “β-Arrestin recruitment, Percent” value in assay [2] turned out to be 0%.

B11: SEQ ID NO: 61 (peptide)
peptide: Ac-RRMMGMVFQSLCG[dA]
With B11, the “inhibition of forskolin-induced cAMP, Percent of Pyr-Apelin-13 Control Activity (10 µM peptide)” value in assay [1] was found to be 1%. In assay [2], the “β-Arrestin recruitment, Percent” value came out at 5%.

B12: SEQ ID NO: 57 (peptide)
peptide: RRMMGMVF
In the case of B12, the “inhibition of forskolin-induced cAMP, Percent of Pyr-Apelin-13 Control Activity (10 µM peptide)” value in assay [1] was -1%. Also, in assay [2], the “β-Arrestin recruitment, Percent” value was 0%.

B13: SEQ ID NO: 18 (peptide)
peptide: RRXXGXVFQCLCGA
modifications: (Nle) = norleucine at positions 3, 4 and 6; C-terminal (dA) = D-alanine
B13: the “inhibition of forskolin-induced cAMP, Percent of Pyr-Apelin-13 Control Activity (10 µM peptide)” value in assay [1] was 30%. In addition, the “β-Arrestin recruitment, Percent” value in assay [2] amounted to 1%.

B14: SEQ ID NO: 24 (peptide)
peptide: RRMVYQCLEG[dA]
For the molecule B14, the “inhibition of forskolin-induced cAMP, Percent of Pyr-Apelin-13 Control Activity (10 µM peptide)” value in assay [1] stood at 16%. Besides, in assay [2], the “β-Arrestin recruitment, Percent” value was -1%.

B15: SEQ ID NO: 52 (peptide)
peptide: RMMGMVFQS
With B15, the “inhibition of forskolin-induced cAMP, Percent of Pyr-Apelin-13 Control Activity (10 µM peptide)” value in assay [1] is 15%. For the same molecule, the “β-Arrestin recruitment, Percent” value in assay [2] turned out to be 0%.

B16: SEQ ID NO: 58 (peptide)
peptide: RRMMGMVFQ
As for B16, the “inhibition of forskolin-induced cAMP, Percent of Pyr-Apelin-13 Control Activity (10 µM peptide)” value in assay [1] turned out to be 5%. For the same molecule, the “β-Arrestin recruitment, Percent” value in assay [2] is 0%.

B17: SEQ ID NO: 8 (peptide)
peptide: RRMMGMVFQCLCG[dA]
modifications: cysteine pairing not given here
Take B17: the “inhibition of forskolin-induced cAMP, Percent of Pyr-Apelin-13 Control Activity (10 µM peptide)” value in assay [1] is 64%. Moreover, the “β-Arrestin recruitment, Percent” value in assay [2] was found to be 17%.

B18: SEQ ID NO: 32 (peptide)
peptide: RRMEVYQCLEG[dA]
For B18, the “inhibition of forskolin-induced cAMP, Percent of Pyr-Apelin-13 Control Activity (10 µM peptide)” value in assay [1] came out at 4%. For the same molecule, the “β-Arrestin recruitment, Percent” value in assay [2] came to 0%.

B19: SEQ ID NO: 63 (peptide)
peptide: Ac-RRMMGMVFQSLCG[dA]-NH2
On to B19, for which, in assay [1], the “inhibition of forskolin-induced cAMP, Percent of Pyr-Apelin-13 Control Activity (10 µM peptide)” value is 21%. The “β-Arrestin recruitment, Percent” value in assay [2] is 9%.

B20: SEQ ID NO: 35 (peptide)
peptide: RXLLGLVFQSLCGA
modifications: (Aib) = aminoisobutyric acid at position 2; C-terminal (dA) = D-alanine
Consider B20, for which the “inhibition of forskolin-induced cAMP, Percent of Pyr-Apelin-13 Control Activity (10 µM peptide)” value in assay [1] came out at 8%. Further, the “β-Arrestin recruitment, Percent” value in assay [2] worked out at 17%.

B21: SEQ ID NO: 21 (peptide)
peptide: RRMMGMVFQCLCG[dA]K(PEG12″)
modifications: cysteine pairing not given here
Take B21: the “inhibition of forskolin-induced cAMP, Percent of Pyr-Apelin-13 Control Activity (10 µM peptide)” value in assay [1] worked out at 34%. Besides, the “β-Arrestin recruitment, Percent” value in assay [2] turned out to be 1%.

B22: SEQ ID NO: 20 (peptide)
peptide: KRRMMGMVFQCLCGA
modifications: (PEG12) at the N-terminal K; C-terminal (dA) = D-alanine
Consider B22, for which, in assay [1], the “inhibition of forskolin-induced cAMP, Percent of Pyr-Apelin-13 Control Activity (10 µM peptide)” value was determined as 37%. Moreover, the “β-Arrestin recruitment, Percent” value in assay [2] came to 1%.

B23: SEQ ID NO: 16 (peptide)
peptide: RRMMGMVFQCLSG[dA]
Turning to B23, the “β-Arrestin recruitment, Percent” value in assay [2] amounted to 0%.

B24: SEQ ID NO: 31 (peptide)
peptide: RRMEVYQCLCG[dA]
modifications: cysteine pairing not given here; also: places D-Ala at position 13
As to B24, the “inhibition of forskolin-induced cAMP, Percent of Pyr-Apelin-13 Control Activity (10 µM peptide)” value in assay [1] came to 2%. In addition, in assay [2], the “β-Arrestin recruitment, Percent” value came out at 0%.

B25: SEQ ID NO: 27 (peptide)
peptide: RRMAYQCLEG[dA]
Regarding B25, the “inhibition of forskolin-induced cAMP, Percent of Pyr-Apelin-13 Control Activity (10 µM peptide)” value in assay [1] was 9%. Further, in assay [2], the “β-Arrestin recruitment, Percent” value is -1%.

B26: SEQ ID NO: 26 (peptide)
peptide: RREMVYQCLEG[dA]
For the molecule B26, the “inhibition of forskolin-induced cAMP, Percent of Pyr-Apelin-13 Control Activity (10 µM peptide)” value in assay [1] turned out to be 29%. For the same molecule, in assay [2], the “β-Arrestin recruitment, Percent” value amounted to 0%.

B27: SEQ ID NO: 19 (peptide)
peptide: RRMVFQCLCG[dA]
modifications: cysteine pairing not given here
With B27, in assay [1], the “inhibition of forskolin-induced cAMP, Percent of Pyr-Apelin-13 Control Activity (10 µM peptide)” value was 27%. For the same molecule, in assay [2], the “β-Arrestin recruitment, Percent” value worked out at 1%.

B28: SEQ ID NO: 62 (peptide)
peptide: RRMMGMVFQSLCG[dA]-NH2
As to B28, in assay [1], the “inhibition of forskolin-induced cAMP, Percent of Pyr-Apelin-13 Control Activity (10 µM peptide)” value was determined as 27%. Further, in assay [2], the “β-Arrestin recruitment, Percent” value was determined as 2%.

B29: SEQ ID NO: 22 (peptide)
peptide: RRMVYQCLCG[dA]
modifications: cysteine pairing not given here
B29: in assay [1], the “inhibition of forskolin-induced cAMP, Percent of Pyr-Apelin-13 Control Activity (10 µM peptide)” value amounted to 62%. Further, the “β-Arrestin recruitment, Percent” value in assay [2] was found to be 0%.

B30: SEQ ID NO: 29 (peptide)
peptide: RRMMGMVYQCLEG[dA]
For B30, in assay [1], the “inhibition of forskolin-induced cAMP, Percent of Pyr-Apelin-13 Control Activity (10 µM peptide)” value was 21%. Further, in assay [2], the “β-Arrestin recruitment, Percent” value came out at 0%.

B31: SEQ ID NO: 17 (peptide)
peptide: RRMMGMVFQSLSG[dA]
With B31, the “inhibition of forskolin-induced cAMP, Percent of Pyr-Apelin-13 Control Activity (10 µM peptide)” value in assay [1] came to 26%. The “β-Arrestin recruitment, Percent” value in assay [2] turned out to be 10%.

B32: SEQ ID NO: 60 (peptide)
peptide: RRMMGMVFQSL
As to B32, in assay [1], the “inhibition of forskolin-induced cAMP, Percent of Pyr-Apelin-13 Control Activity (10 µM peptide)” value is 16%. For the same molecule, in assay [2], the “β-Arrestin recruitment, Percent” value came out at 0%.

B33: SEQ ID NO: 38 (peptide)
peptide: RRMMGMVEQSLCG[dA]
In the case of B33, the “inhibition of forskolin-induced cAMP, Percent of Pyr-Apelin-13 Control Activity (10 µM peptide)” value in assay [1] is 12%. In assay [2], the “β-Arrestin recruitment, Percent” value came to 0%.

B34: SEQ ID NO: 10 (peptide)
peptide: RRMMGMVYQCLCG[dA]
modifications: cysteine pairing not given here
Consider B34, for which the “inhibition of forskolin-induced cAMP, Percent of Pyr-Apelin-13 Control Activity (10 µM peptide)” value in assay [1] worked out at 70%. In assay [2], the “β-Arrestin recruitment, Percent” value is 3%.

B35: SEQ ID NO: 30 (peptide)
peptide: RRMMGMVAQCLEG[dA]
B35: the “inhibition of forskolin-induced cAMP, Percent of Pyr-Apelin-13 Control Activity (10 µM peptide)” value in assay [1] is 31%. Also, in assay [2], the “β-Arrestin recruitment, Percent” value is -1%.

B36: SEQ ID NO: 39 (peptide)
peptide: RRMMGMVFQSLEG[dA]
In the case of B36, the “inhibition of forskolin-induced cAMP, Percent of Pyr-Apelin-13 Control Activity (10 µM peptide)” value in assay [1] is -13%. Further, the “β-Arrestin recruitment, Percent” value in assay [2] worked out at 0%.
